Target: CTC1 (CST subunit);STN1 (CST subunit);TEN1 (CST subunit);Polα-primase, endogenous, co-purified with CST (Homo sapiens;Homo sapiens;Homo …, UniProt Q2NKJ3;Q9H668;Q86WV5;P09884;Q14181;P49642;P49643 …, |||)
Assay: EMSA; Kd,app shown only in figure; CST EMSA: 20 mM HEPES-NaOH pH 8.0, 150 mM NaCl, 2 mM MgCl2, 0.2 mM EGTA, 0.1% NP-40, 10% glycerol, 1 mM DTT, 2 h on ice, 0.7% agarose 1x TBE gel at 4 °C; POT1-TPP1N EMSA: C-strand synthesis buffer, 30 min at 30 °C
Conditions: protein: recombinant;recombinant;recombinant;native; tags: N-terminal 3xFLAG;N-terminal Myc;N-terminal HA;; copies: 1;1;1;1;1;1;1; label: 5'-32P; folds into G-quadruplex in KCl and NaCl, not LiCl

Binder	binding result
15xTEL (ssDNA) DNA: TTAGGGTTAGGGTTAGGGTTAGGGTTAGGGTTAGGGTTAGGGTTAGGGTTAGGGTTAGGGTTAGGGTTAGGGTTAGGGTTAGGGTTAGGG	binds
9xTEL (ssDNA) DNA: TTAGGGTTAGGGTTAGGGTTAGGGTTAGGGTTAGGGTTAGGGTTAGGGTTAGGG	binds

Reference: paper PMC9402439, “Reconstitution of a telomeric replicon organized by CST”
